In this data set the target is Ku70-Ku80 heterodimer (Ku);PAXX WT (PAXX1-204, C9orf142) (human?;human, UniProt P12956;P13010;Q9BUH6 1-609;1-732;1-204, |). Put plainly: EMSA.
Chain of Ku70-Ku80 heterodimer (Ku);PAXX WT (PAXX1-204, C9orf142) (P12956 whole entry, chain 1 of 3): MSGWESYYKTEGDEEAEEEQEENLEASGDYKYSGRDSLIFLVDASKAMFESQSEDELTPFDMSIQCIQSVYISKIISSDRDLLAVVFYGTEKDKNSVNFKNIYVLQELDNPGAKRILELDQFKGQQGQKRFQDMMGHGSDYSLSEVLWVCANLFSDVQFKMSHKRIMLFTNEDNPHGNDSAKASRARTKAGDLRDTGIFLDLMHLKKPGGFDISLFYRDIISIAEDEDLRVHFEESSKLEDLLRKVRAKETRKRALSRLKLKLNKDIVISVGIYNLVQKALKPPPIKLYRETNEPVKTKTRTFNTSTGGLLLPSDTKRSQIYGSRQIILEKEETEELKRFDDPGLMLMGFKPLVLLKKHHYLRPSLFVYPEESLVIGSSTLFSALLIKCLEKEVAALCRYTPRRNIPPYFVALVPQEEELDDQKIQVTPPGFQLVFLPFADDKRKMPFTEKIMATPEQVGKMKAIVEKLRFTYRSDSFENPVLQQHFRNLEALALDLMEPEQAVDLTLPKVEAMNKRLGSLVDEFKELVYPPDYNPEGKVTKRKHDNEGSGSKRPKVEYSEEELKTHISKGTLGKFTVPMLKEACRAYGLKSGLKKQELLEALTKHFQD
Chain of Ku70-Ku80 heterodimer (Ku);PAXX WT (PAXX1-204, C9orf142) (P13010 whole entry, chain 2 of 3): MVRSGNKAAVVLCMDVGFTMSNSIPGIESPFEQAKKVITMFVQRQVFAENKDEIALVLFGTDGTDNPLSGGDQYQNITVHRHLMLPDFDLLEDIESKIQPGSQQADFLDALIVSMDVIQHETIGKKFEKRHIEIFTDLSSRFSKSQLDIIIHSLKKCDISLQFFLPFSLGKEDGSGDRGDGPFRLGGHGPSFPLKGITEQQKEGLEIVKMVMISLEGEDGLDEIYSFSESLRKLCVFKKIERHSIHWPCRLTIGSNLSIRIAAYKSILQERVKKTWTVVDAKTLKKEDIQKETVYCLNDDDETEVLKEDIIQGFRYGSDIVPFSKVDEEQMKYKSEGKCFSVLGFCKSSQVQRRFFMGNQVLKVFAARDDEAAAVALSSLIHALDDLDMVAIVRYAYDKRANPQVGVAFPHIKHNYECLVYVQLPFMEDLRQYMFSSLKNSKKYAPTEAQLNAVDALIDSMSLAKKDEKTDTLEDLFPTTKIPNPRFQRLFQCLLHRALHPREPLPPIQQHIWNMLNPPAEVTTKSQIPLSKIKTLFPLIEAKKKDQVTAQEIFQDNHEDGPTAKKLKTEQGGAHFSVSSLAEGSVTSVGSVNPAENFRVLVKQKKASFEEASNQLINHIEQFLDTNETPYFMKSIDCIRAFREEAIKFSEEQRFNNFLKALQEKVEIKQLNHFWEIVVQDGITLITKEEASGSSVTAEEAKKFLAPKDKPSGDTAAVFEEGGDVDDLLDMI
Chain of Ku70-Ku80 heterodimer (Ku);PAXX WT (PAXX1-204, C9orf142) (Q9BUH6 whole entry, chain 3 of 3): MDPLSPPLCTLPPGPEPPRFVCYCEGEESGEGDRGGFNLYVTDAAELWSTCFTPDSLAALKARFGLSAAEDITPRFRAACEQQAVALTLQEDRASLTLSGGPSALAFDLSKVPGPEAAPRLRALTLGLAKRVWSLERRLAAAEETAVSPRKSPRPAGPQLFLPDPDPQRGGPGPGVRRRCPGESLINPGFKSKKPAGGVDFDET

B1: 50-bp 6-FAM dsDNA (dsDNA)
DNA 1: TAAATGCCAATGCTGCTGATACGTACTCGGACTGATTCGGAACTGTAACG
DNA 2: CGTTACAGTTCCGAATCAGTCCGAGTACGTATCAGCAGCATTGGCATTTA
In the case of B1, the binding result was “binds”.

The values above are taken from PMC4338599.
